B1: 61 (protein, listed as Gordonia amarae)
chain: MATGAGSGVPSPADRVIVRSPGVIDVHAHAVLPMSLGCAGAAGPEIGYREDGSPFFRVGEYVLNGVRYEGSAFMDPEVRVAAMDAAGIGLQMISPNPITYFTRLDARSATDYARAHNDAIAEAAGRHPGRLVGAAQLPMQDVPAAIAELERSVRELGLVAAYIDTDIGDRTLDAPELDDFYSAAVELDVPVFIHPSPVGQEGPPDDTRLRRFDLDLLLGFSYDETLAVAALVFGGVLERHPALDVCLSHGGGTLAFVAGRFARAVAKPRAWVPEFLVENGIESYLRRLWLDTHVHSAGSLRLLIDTVGTDRLVFGTNFAGWDADGATEVDALGDLRETTTANAAHLLRLGRA
B2: 62 (protein)
chain: MAVGGKNFRDVTDQVWCPKKRIEDMDREGVDIQVLSPIPVTFSYWAKPEEAESMARIQNDFIAETVLAYPDRFVGLGTVPMQDGETAIREMERCITELNLHGIEIGTNVNGKNLDDPSFIEFFRMAEKWQVPIFIHPWETLGRDRMPHHNFMYTVGMPSETALAAATLIWSGIMEKFPRLKVCFAHGGGSFPYILPRLDQGWKVWPHLRLTTHPPSYYAKKFYFDSLNYDPINLKYMIERFGHEKIFMGSDYPFLLREVDPGKVIDETASLSEEQKAAMLGGNAAEFLNIDIKKRGVAYAESTNT
modifications: Bacillus thuringiensis serovar pulsiensis
B3: 64 (protein, listed as Achromobacter piechaudii)
chain: MAIQKIDMHAHFFPPITRQEAAALDPVNAPWLRPDADGATGQIMAGEREFRPVDATLWDPALRIEQMDRHGVDVQILCATPIMFGYTYPARPAADWAARMNDLALEHCAYAPSRLKALAQVPLQDLELACQEASRARAAGHLGVQIGNHVGPRDLDDETLVQFLIHCANNDIPVLVHPWDMMTDGRMKKWMLPWLVSMPAETQLGILSLILSGAFERIPRSLKLCFAHGGGSFAYLLGRVDNAWRHRDIIRQDCPQLPSSYTDRFYTDSAVFDPRSLRLLIDVMGEDRVLLGSDYPYPLGEQEVGRLVAHAELVPEVQQKILFRNTMTFFGLQPGLQPGLQS
B4: 2 (protein, listed as Serratia sp.)
chain: MAKIICLEEHTLDKALVMASMPAALEQAPFLSDWGKTVTDGNLPDRSRPQIEKNDLINIKGADIGRGRLDDMDVAGITMQVLSVGGFPHLISAAEGVDLNRAANDRLADAVNAHPDRFAAFATLPWAQPDSAEKELERAVKELGFKGALLNGRPSTHFLDHPDYDGLLARFNALGVPLYLHPGLPVRSVQQAYYGGFSDEVTARLSMFGWGWHHEAGIHLLRLILSGAFDKYPNLQVISGHWGEMLPFWLQRLDDSLPQAATGLRRTIAQTFKEQVYVTPSGMLTLPHFQFIYALLGAERIIFSVDYPYQTLDGVKAFIQSLPVPEEAKEAIAFRNAERLLGLTS
B5: 68 (protein, listed as Hoeflea phototrophica)
chain: MAIIDAHTHTLCPAVNEKVAGTIKPDSVPYQRDMSPESKEQDHTQFPELKIMFNQVERRLADMARMGIDRQVIAPAPGQQHYWAEPKLLAEISALQNDHVAELVARAPDRFAGIGTLPMTDPDAAVAEITRATRELGLRVFQIDSRVMERELSDASLDPIYAALEAAGAGLMIHPLGFSNGERLTPFFMVNSVAQPLEELLAFNHLVFGGVLDRFPKLKVYIAHGGGFAPFYIGRFDHAWKVRPEVNRLTPSAPSTYLRRIYFDTCVYRTDHIETLVRTVGADRVMLGSDYPFDMGDTDPLGLLNACQGLSDDEKATISSKVAIDFFGLET
B6: 69 (protein, listed as Microbacterium testaceum)
chain: MATSTEGQDVTDVHAHLLMPGLHAEVERRVPDEVQAAADLELRRNGLASLQASGRMIGERFPRLTDVRARLAAMDEQGVDRQWVSPSPNHFYPWANEGLATWASGEANRLIAEHVALAPDRLVGLGVVPLQHPHLVVDALDDAVLGRGLAGVEISSFAGDVELSDERLESFWARAAELRAVVFLHPFGCSLDERLDRFYLSNTVGQPTENAVALSHLIFSGVLDRHPGLRLIAAHGGGYLPTAIGRSDRAWRVRPEARGCAHAPSTYLSKLWFDTVVHDERALRWLVEAAGADRVLLGSDFPFDMGLDDPVAFVRGAGLQDAEVSGILGGNAAELLRTRVHA
B7: 70 (protein, listed as Alicyclobacillus acidocaldarius)
chain: MAIEPNRAADVHTHFLPTEVLEFLKREPRIQVDLERRAPDKEPFLTVEGRWSFELKRMFVDFEAFASAYRQAGIGLALVSPLPQLFVYHLPAEMGAQVAEVYNDALRDVLAPHRERFRPLATLPLADPTAAARELERRMDEGFVGAIVGPGVGEALIGDEAFWPLWEVADARRAVLFLHPLLHADPRAARLMLPNLVGVPWETTLAAAHLVLSGLLDRYPGARVLLAHGGGFLPYQIGRIEQGYDVWPQVRGRLQDRPTAYLRRMFYDNVLWSDAALRCLIDVVGADRVLAGSDFPFDLSAWPPRPGADVSVLAGGSGREGRLS
B8: 71 (protein, listed as Burkholderia dolosa)
chain: MARAGHRAARTRQSRPGDRTMTCSCCMSAGRRRVLGAFAALAGAPKGPRAASAAQPAAASKPTRGDATARNRHSRALLPGKASASWSATKASGSGGAFAWDDTTFTFRTPAGGLGPLPMKFIDVDARLRDMDASGVDVQALSLSVPMAYWGDRPFNAKLARAWNTAASRVHVRAPDRFVVLATLPMLDATDAIDELERASELPGVRGVYMGTNIDNRDLDDPRFAPVFARIEQLGLPVFLHPQQTVGGARLGDFYLSNLLGNPFDTAIAASHLILGGVLDRHPALHFTLPHAGGALPILVGRLDAGWTVRAETRRLAHQPSGYLRRFSYDTVSHSGPVLNFLIENVGIDRLVLGSDYCFDMGYEQPVRFLDRLDLTPDERAMVIGGNAGRLLRI
B9: 72 (protein)
chain: MADCPCCVSPKRRRLLGSVSAIAAGMMAGLPALAAQPSTAAAGTGKPLSIDIHAHYYSESFLGLLGGEGKQFGGHFFRNDDSFTFQTPAGGLGPLPMKFIDVEQRVRDMDNSGVDVQAISLSVPMVYWADRTLNAKLARAWNTAASDVHRKHPTRFVVLATLPMLNANDAIDELEFAAGLPGVRGIYMGTNINNRDLDDPLFSPIFKRIEQLNLPIFLHPQQTVGGARLADFYLSNLLGNPFDTAIAASHLILGGVLDKYPALHFSLPHAGGALPILVGRIDAGWSMRSETKRVAQKPSSYLRRFSYDTISHSGPTLDFLIRNIGADRLVLGSDYCFDMGYEQPVRFLDRLALPDDQKRMVVGGNAARLLNL
modifications: Cupriavidus necator
B10: 73 (protein, listed as Sphaerobacter thermophilus)
chain: MARIDAHAHAQPPEYLDALLASGRYESVRDAEGRIVVRERGSRFLTITPQMHHPEQRVAEMDEAGIDMQILSVTTPQVYFLQGQAAVDLARRCNDYLADIVRSYPTRFRALASVPLTADPDAAVREFVRCLDDLGMVGAIIGSNIDGRPIDDPAFDAFYAEADRRATTLFIHPMVPAGIEVMNPYALAPLVGFMFDTTLAVSRLIFSGFFERYPRVKVLVGHLGAAVPYLAGRLDIGWRSYSDCQGIPHPPTEYIRRLYLDTVSFHAPALRCALETVGPDRIVFGSDYPHVIGDVGGAIASIQQALPATTHDGVLGHTAAELFGVSA
B11: 74 (protein, listed as Ramlibacter tataouinensis)
chain: MATVIDVHTHMFTTKWLELLKKEGGQYNIQTRPDGQQEIFRGNTPVVIPQKGHFDWKLRIQHMDQAGIDVSVVSLTCPNVYWGGEDVSVRAAREANDNVAQAQTAYPDRIRWFASLPWEYMATVIDVHTHMFTTKWLELLKKEGGQYNIQTRPDGQQEIFRGNTPVVIPQKGHFDWKLRIQHMDQAGIDVSVVSLTCPNVYWGGEDVSVRAAREANDNVAQAQTAYPDRIRWFASLPWEYPQRAVEELERSCAQGAAGVMVLANVAGRSLTDPLFAPVWAEIDRRALPVLVHPTDPPGVDLMDMTKFDLSWSVGFMFDTTLAITRMIFEGFFDRYPNLRIIASHGGGTLPYLVGRFEKGDEVELASRRQMKRKPTDYLRHIHYDCITYNLGALQYLISVVGAGQVMFGTDWPHWVHDTRGAFANTAQLPQEQTRAVRGANAQRLFKL
B12: 75 (protein, listed as Ectocarpus siliculosus)
chain: MAKIDSYTHFACPAFMDHLEAESGHPMVFRGLFSSIPELSDIDLRIRYMDEHGIDVHCLVPLPWLECEPGLHADEGKALEACRIANDEMARVVARFPDRLIGVALIPTTTEQAMIQETTRAVKELGMAGVALFVGPTAKPPDMACFEGLYRTCEELGAVVWMHPCRPQSYADYDSYKGEGSKHQIWNTFGWIYDTSVAMVHIALAGVFRRYPGLKVVTHHHGAMVPFFTARFDTQRRNFQEVEGDDLLEDLRLFYCDTATFGESAANIQQAIDFFGKSQVLFGTDTPMDMGTRGMFTRTTIASVEALGAAPEDKESFYAGNVLDMLGERFAGISGARGAVAARPKGDSTRIAASL
B13: 3 (protein, listed as Lactobacillus plantarum)
chain: MAKLITVEEHFESAAVTAAMRQAVGNAVLPAVSPALRQYMRDNLPSPAIMQDTQHERLAFMAQYGIDMQVLSYGNSSPQNLSPEQAVPLSQLANDELAKAVVAHPDRYAGLAVLPVGDPQAAVAELNRAVTTLGLRGVLLKGNYQNKFFDEPFFLPIFEAAAALDVPVYFHPSFIPQAVTSHYFESNQWSDVVTGILSSAGYGWHMDVGIQVIRMIASGIFDKLPGLKLISGHWGELVPLFLERLDDELTTYTDLQYPFSTYYRHNVYVTPSGILSAPQLQFMLAEMGADHLMYSIDYPYKQPETSGSFLDIADLTDEQRAQIAFGTATTLFKL
B14: 76 (protein, listed as Polymorphum gilvum)
chain: MAKKIDIFNHIWPEPFFKALIAHIGEMTDITMRSGAVPMMTNLDRRFEVMDMFGPDYMQVLSLASPPLEKLADPAKALELSRIGSDSLAELCQRYPERFPAFIGTAPLSNPAAVVGECRRAIEDLGAAGMQIFTNVAGKPLDLAEFEPFFEYMASAGKPVWLHPARGEAFADYQTEKRSEYEIWWTFGWPYETSAAMARLVFSRMFDKYPGLKVITHHAGGMVPFFEGRVGPGWDQMGARTTDRDLAAVRKALKRPHLDYFKEFYADTASFGSRKAIEHAIEFFGEDRVLFASDAPFDPEGGPMYIRETMRCIDSLDLTDAQRRKIYHGNATALLGLSL
B15: 77 (protein)
chain: MALIDLHAHAPHPGYYNQHPHWGPFFERHEDGDVKLRVGDWILTLGSPERKALVRAGKGPTVEEYQARWADPKVRLAGMDAAGQNAQVVSVPSHCYMYWAEKEFSVPFATKVNDTFAEYCSAAPDRLMFWAHAALNAPEQAALELRRACTELGAKGLVAGGANFGGLEFDSPELDPVWKVLCDLDLPMFIHGYNQSVTWGKKANDDRYETTAIVGMQYDETRCFWNLVCGGVLDRFPGLKVYITHGGGYVPYQLGRLAQCNGNLDVAHNKKPVLEYLKNNFYFDVELHEVPMRQALIDIIGADRVLYGSNFGGSDAVRHDLTEGLRLSDDDLQKIRWKNACKLLHLDPAKIGEPAKKQAVSA
modifications: Burkholderia xenovorans

Assay: Saturation mutagenesis of SEQ ID NO:109: dicamba decarboxylation activity of point mutants (CO2 released), fold of backbone (Tables 7, 8, Megatable 1)
Settings: decarboxylation activity (CO2 released) of point mutant vs unmutated backbone protein; backbone SEQ ID NO: 109

Row | Molecule | Fold Activity [fold]
1 | B1 | 2.4
2 | B2 | 1
3 | B3 | 1.8
4 | B4 | 1.1
5 | B5 | 1.3
6 | B6 | 1.3
7 | B7 | 1.7
8 | B8 | 1.5
9 | B9 | 1.2
10 | B10 | 1.2
11 | B11 | 1.4
12 | B12 | 1.7
13 | B13 | 0.9
14 | B14 | 1.1
15 | B15 | 1.3
